Legend:
Experiment in all cases: equilibrium binding isotherms of eEF2 on ribosomes
[1] = biological target: yeast ribosomes (salt-washed) with ribosomal protein L3 mutant S2K (S. cerevisiae) (UniProt P14126)
[2] = biological target: yeast ribosomes (salt-washed) with ribosomal protein L3 mutant S2A (S. cerevisiae) (UniProt P14126)
[3] = biological target: wild-type yeast ribosomes (salt-washed), with wild-type ribosomal protein L3 (S. cerevisiae) (UniProt P14126)
[4] = biological target: yeast ribosomes (salt-washed) with ribosomal protein L3 mutant S2T (S. cerevisiae) (UniProt P14126)

- Kd [1]: 20.4 nM
- Kd [2]: 19.9 nM
- Kd [3]: 18.7 nM
- Kd [4]: 20.7 nM
Substance: 6 × His-tagged eEF2 (elongation factor 2) (from UniProt P32324 1-842) (natural protein)

From paper PMC2577335
